# In the supplement of paper PMC5998384:
# What was measured:
# HeLa Kyoto [1] = assay: solubility in G1/S (NP-40 vs SDS abundance) (log2 ratio); higher = more soluble; settings: cell cycle stage: G1/S
# HeLa Kyoto [2] = assay: melting temperature (median over replicates), in situ; higher = more thermally stable
# HeLa Kyoto [3] = assay: solubility change mitosis vs G1/S (difference of NP-40 vs SDS log2 ratios) (log2 ratio difference); higher = more soluble in mitosis
# HeLa Kyoto [4] = assay: thermal stability score vs G1/S (z-score of summed log2 fold changes over temperatures); higher = more thermally stable than in G1/S
# [5] = cell cycle stage: early G1 (4.5 h after nocodazole release)
# 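For melting temperature (median over replicates), in situ in this document: HeLa Kyoto cells synchronized by double thymidine or nocodazole block, proteins quantified by TMT10plex mass spectrometry, three independent biological replicates.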
# 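For solubility change mitosis vs G1/S (difference of NP-40 vs SDS log2 ratios) in this document: synchronized HeLa Kyoto cells (double thymidine block for G1/S, nocodazole release for mitosis), protein amounts in NP-40 versus SDS lysates quantified by mass spectrometry, three biological replicates.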
# 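For solubility in G1/S (NP-40 vs SDS abundance) in this document: HeLa Kyoto cells arrested at G1/S by double thymidine block, proteins quantified by TMT10plex mass spectrometry in mild NP-40 versus SDS extracts, three biological replicates.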
# 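For thermal stability score vs G1/S (z-score of summed log2 fold changes over temperatures) in this document: synchronized HeLa Kyoto cells, proteins quantified by TMT10plex mass spectrometry, three biological replicates, mitosis taken 0.5 h after nocodazole release, G1/S directly after double thymidine block.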
Substance,solubility in G1/S (log2) (HeLa Kyoto [1]),melting temperature (HeLa Kyoto [2]; cell cycle stage: G1/S) [°C],melting temperature (HeLa Kyoto [2]; cell cycle stage: mitosis) [°C],solubility change mitosis (log2) (HeLa Kyoto [3]),thermal stability score (HeLa Kyoto [4]; [5]),thermal stability score (HeLa Kyoto [4]; cell cycle stage: mitosis)
MCGNTMSVPLLTDAATVSGAERETAAVIFLHGLGDTGHSWADALSTIRLPHVKYICPHAPRIPVTLNMKMVMPSWFDLMGLSPDAPEDEAGIKKAAENIKALIEHEMKNGIPANRIVLGGFSQGGALSLYTALTCPHPLAGIVALSCWLPLHRAFPQAANGSAKDLAILQCHGELDPMVPVRFGALTAEKLRSVVTPARVQFKTYPGVMHSSCPQEMAAVKEFLEKLLPPV [LYPLA2],0.543,53.3,53,0.185,-1.02,0.00875
MWLAAAAPSLARRLLFLGPPPPPLLLLVFSRSSRRRLHSLGLAAMPEKRPFERLPADVSPINYSLCLKPDLLDFTFEGKLEAAAQVRQATNQIVMNCADIDIITASYAPEGDEEIHATGFNYQNEDEKVTLSFPSTLQTGTGTLKIDFVGELNDKMKGFYRSKYTTPSGEVRYAAVTQFEATDARRAFPCWDEPAIKATFDISLVVPKDRVALSNMNVIDRKPYPDDENLVEVKFARTPVMSTYLVAFVVGEYDFVETRSKDGVCVRVYTPVGKAEQGKFALEVAAKTLPFYKDYFNVPYPLPKIDLIAIADFAAGAMENWGLVTYRETALLIDPKNSCSSSRQWVALVVGHELAHQWFGNLVTMEWWTHLWLNEGFASWIEYLCVDHCFPEYDIWTQFVSADYTRAQELDALDNSHPIEVSVGHPSEVDEIFDAISYSKGASVIRMLHDYIGDKDFKKGMNMYLTKFQQKNAATEDLWESLENASGKPIAAVMNTWTKQMGFPLIYVEAEQVEDDRLLRLSQKKFCAGGSYVGEDCPQWMVPITISTSEDPNQAKLKILMDKPEMNVVLKNVKPDQWVKLNLGTVGFYRTQYSSAMLESLLPGIRDLSLPPVDRLGLQNDLFSLARAGIISTVEVLKVMEAFVNEPNYTVWSDLSCNLGILSTLLSHTDFYEEIQEFVKDVFSPIGERLGWDPKPGEGHLDALLRGLVLGKLGKAGHKATLEEARRRFKDHVEGKQILSADLRSPVYLTVLKHGDGTTLDIMLKLHKQADMQEEKNRIERVLGATLLPDLIQKVLTFALSEEVRPQDTVSVIGGVAGGSKHGRKAAWKFIKDNWEELYNRYQGGFLISRLIKLSVEGFAVDKMAGEVKAFFESHPAPSAERTIQQCCENILLNAAWLKRDAESIHQYLLQRKASPPTV [NPEPPS],0.0254,53.9,53.6,-0.148,-0.503,-1.51
MATKIDKEACRAAYNLVRDDGSAVIWVTFKYDGSTIVPGEQGAEYQHFIQQCTDDVRLFAFVRFTTGDAMSKRSKFALITWIGENVSGLQRAKTGTDKTLVKEVVQNFAKEFVISDRKELEEDFIKSELKKAGGANYDAQTE [COTL1],0.108,52.4,52.8,0.0356,3.44,1.43
DMD,0.235,49.9,50.2,-0.235,0.00802,0.278
